In patent US20230212305A1, “ANTI-ABCG2 ANTIBODIES AND USES THEREOF” (Kenjockety Biotechnology, Inc., priority 2020, published 2023):
Positions count from the first letter of the chain named.

B1: G2.318 rat: anti-ABCG2 antibody raised in rat (antibody, V domains shown)
VH: EVKLLESGPGLVKPSQSLSLTCSVTGYTITSGYDWSWIRKFPGNKMEWMGYISYSGWTNYNPSLRSRISISRDTSKNQFFLQLNSVTTEDTATYYCARVRGYNPFAYWGQGTLVTVSS
VL: DIVMTQSPSLLSASVGDRVTLSCKAGQNINNYLAWYQQKLGEAPKLLIYNANSLQTGIPSRFSGSGSGTDFTLTISSLQPEDVATYFCQQYNSWTTFGSGTKLEIK
B2: G2.630 rat: anti-ABCG2 antibody raised in rat (antibody, V domains shown)
VH: B1 VH with K3Q, L5V, S36T, W57F, S71T, A97T, V99T
VL: B1 VL with I2V, Q27R, E42K, A51T
B3: G2.320 rat: anti-ABCG2 antibody raised in rat (antibody, V domains shown)
VH: EVQLEESGPGLVKPSQSLSLTCSVTGYTITSGYDWTWIRKFPGNKMEWMGYISYSGFTNYNPSLRSRISITRDTSKNQFFLQLNSVTTEDTATYYCTRTRGYNPFAYWGQGASVSSAS
VL: B1 VL with Q27R, E42K, A51T
B4: G2.641 rat: anti-ABCG2 antibody raised in rat (antibody, V domains shown)
VH: EVKLEESGGGLVQPGRSLKLSCAASGFTFSRFYMAWVRQAPTKGLEWVAHISHGGDTTYYRDSVKGRFTISRDNAKSTLFLQMDSLRSEDTATYYCTTSAAPWNYVMDGWGLGASVTVSS
VL: DIQMTQSPSLLSASVGDRVTLTCKGSQNINNFLAWYQQKLGEAPKLLIYKTNSLHTGIPSRFSGSGSGTDYTLTISSLHSEDLATYYCYQYNNGYTFGAGTKLELK
B5: G2.420 rat: anti-ABCG2 antibody raised in rat (antibody, V domains shown)
VH: SVQLMESGPGLVQPSQTLSLTCTVSGFSLNSYNVNWVRQPPGKGLEWIAAISSGGSTYYNSVLKSRLSITRDTSKSQVFLKMNSLQTEDTAMYFCARSGYYSSYMNWGQGVMVTVSS
VL: DVVMTQTPPTLSATIGQSVSISCRSSQSLLHSTGNTYLNWLLQRPGQPPQLLIYLVSRLEYGVPNRFSGSGSGTDFTLKISGVEAEDLGVYYCAQSTHALNTFGAGTKLELK
B6: G2.173 mouse: anti-ABCG2 antibody raised in mouse, listed in Table 2 (antibody, V domains shown)
VH: QVQLQQSGADLVRPGASVKLSCTASGFNIKDDYVHWVKQRPEQGLEWIGRIDPANGNTRYAPKFRGKATMTADTSSNTAYLQLSSLTSADTAVYYCSPPLWVGGFAYWGQGTLVTVSS
VL: DVVMTQTPLSLPVSLGDQASISCRSSQSLVHSDVNTYLHWYLQRPGQSPKLLIYKVSNRFSGVPDRFSGSGSGTDFTLKISRVESEDLGIYFCSQTTHVPYTFGGGTKLEIK
B7: G2.173 Humanized 1: humanized version of anti-ABCG2 antibody G2.173 (antibody, V domains shown)
VH: EVQLVQSGAEVKKPGASVKVSCKASGFNIKDDYVHWVRQAPGQGLEWIGRIDPANGNTRYAPKFRGRATMTADTSISTAYMELSRLRSDDTAVYYCSPPLWVGGFAYWGQGTLVTVSS
VL: B6 VL with T7S, S14T, D17Q, Q18P, L42Q, K50R, S85A, L88V, I90V
B8: G2.173 Humanized 3: humanized version of anti-ABCG2 antibody G2.173 (antibody, V domains shown)
VH: B7 VH with N55S
VL: B6 VL with T7S, S14T, D17Q, Q18P, L42Q, K50R, S85A, L88V, I90V
B9: G2.173 Humanized 2: humanized version of anti-ABCG2 antibody G2.173 (antibody, V domains shown)
VH: B7 VH with N55Q
VL: B6 VL with T7S, S14T, D17Q, Q18P, L42Q, K50R, S85A, L88V, I90V
B10: G2.642 rat: anti-ABCG2 antibody raised in rat (antibody, V domains shown)
VH: QIQLVQSGAELVKPGASVKLSCKTSGFTFSSNYISWLRQKPRQSLEWIAWIYSGTGGTYYNQKFTGKAQLTIDTSSNTAYMQLSSLTSEDSAIYYCARHVGLRYWYFDVWGAGTSVTVSS
VL: DIVLTQSPASLTVSLGQRATISCRASESVDSNGNSFMHWYQQKPGQSPKVLIYRASNLESGVPARFSGSGSRTDFTLTINPVEADDVATYYCQQSNEDPWTFGGGTKLEIKREF
B11: G2.643: Anti-G2 antibody raised in rats (antibody, V domains shown)
VH: VNLVESGPELVKPGTSVKISCKASGYRFTSYYVHWVKQRPGQGLEWIGWIFPGSDNTKYNEKFKGKATLTADTSSSTAYMQLSSLTSEDSAVYFCASIYYGYDGTLYFDYWGQGTSVTVSS
VL: DIVMTQSHTFMSTSVGDRVSVTCKASQNVGNNVAWYQQKPGQSPNALIYSASYRYSGVPDRFTGSGSGTDFTLTISNVQSEDLAEYFCQQYDRYPLTFGGGTKLEIK

What follows are molecules tested on cynomolgus ABCG2 (assay: Flow cytometry binding to 293T cells overexpressing cynomolgus ABCG2). Conditions: not given.
Design: key to Cynomolgus ABCG2 binding: binding=“+”; non-significant binding=“−”
Experimental: (§1) Cell Binding Assays. Antibody binding to cells was evaluated by flow cytometry. 293T cells stably transfected to express human or cynomolgus ABCG2 (293T_ABCG2_OX) were washed once in flow cytometry buffer (PBS+2% FBS+0.02% sodium azide), resuspended at 2×10^6 cells/mL in flow cytometry buffer, and dispensed into 96-well microtiter plates at 0.1 mL/well. Recombinant antibodies were added to cells at 5 ug/mL for initial binding confirmation, or serially diluted from 100 ug/mL in flow cytometry buffer. After incubating cells on ice for 30 min, cells were washed twice with flow cytometry buffer. Bound antibody was detected with PE-labeled F(ab′)2 fragment goat anti-human IgG (Jackson ImmunoResearch) and evaluated on an Attune NxT flow cytometer. EC50 is calculated to be the concentration of antibody that gives half maximal response.

Chain of cynomolgus ABCG2 (as listed by the source): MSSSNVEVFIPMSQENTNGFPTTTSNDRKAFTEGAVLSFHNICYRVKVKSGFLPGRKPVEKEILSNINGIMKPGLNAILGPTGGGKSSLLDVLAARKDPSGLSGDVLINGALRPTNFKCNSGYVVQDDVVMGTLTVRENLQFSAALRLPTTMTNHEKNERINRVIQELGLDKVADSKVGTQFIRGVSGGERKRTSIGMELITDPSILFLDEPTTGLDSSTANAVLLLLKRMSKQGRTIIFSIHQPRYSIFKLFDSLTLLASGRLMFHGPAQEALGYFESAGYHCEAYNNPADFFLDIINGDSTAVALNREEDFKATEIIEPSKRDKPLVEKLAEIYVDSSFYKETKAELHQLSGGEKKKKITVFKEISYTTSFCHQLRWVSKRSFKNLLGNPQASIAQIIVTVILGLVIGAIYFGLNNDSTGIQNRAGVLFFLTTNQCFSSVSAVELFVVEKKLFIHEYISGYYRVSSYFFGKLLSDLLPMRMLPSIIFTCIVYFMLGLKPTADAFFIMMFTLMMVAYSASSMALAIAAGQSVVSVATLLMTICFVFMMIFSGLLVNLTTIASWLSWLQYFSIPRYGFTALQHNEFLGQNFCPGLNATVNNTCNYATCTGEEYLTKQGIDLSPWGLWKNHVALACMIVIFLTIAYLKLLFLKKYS

Molecule	Cynomolgus ABCG2 binding
B1	+
B2	+
B3	+
B4	+
B5	+
B6	−
B7	−
B8	−
B9	−
B10	−

Same assay, conditions: in words; FIGS. 7-11, 21

Molecule	binding to 293T cells overexpressing cynomolgus ABCG2
B11	strong binding

Same assay, conditions: in words; FIGS. 7-11, 21; listed as G.643

Molecule	binding to 293T cells overexpressing cynomolgus ABCG2
B11	did not show significant binding

These molecules were tested on 293T_ABCG2_OX cells (assay: not given). Conditions: not given.
Type: cell-based, human
Experimental: Cytotoxicity Assays. The effect of antibodies on topotecan cytotoxicity was evaluated on 293T_ABCG2_OX cells, 293T cells stably transfected to express ABCG2. Cells were plated in 0.05 mL of Assay Media (DMEM+10% FBS) at 5000 cells/well in white, flat bottom 96-well tissue culture plates. Topotecan was prepared at 2× final assay concentration by serial dilution from 200 uM in assay media containing test antibodies or control antibodies at 100 ug/mL (2× final concentration), or Fumitremorgin C, a small molecule ABCG2 inhibitor at 20 uM (2× final concentration). An equivalent volume (0.05 mL) of the topotecan/antibody mixture was added to the 293T_ABCG2_OX cells in 96-well plates. The plates were then incubated at 37° C., in 5% CO2. After 72-96 hr plates were equilibrated to room temperature and cell viability assessed using Promega® CellTiter-Glo® Luminescent Cell Viability Assay according to the manufacturer's recommended protocol. Luminescence was measured on a Molecular Devices® FlexStation® 3 Multi-Mode Microplate Reader and data analyzed using GraphPad Prism 8.0 software. Half maximal inhibitory concentration (1050) is the concentration of drug (topotecan or other chemotherapy cytotoxic agent) where the response (cell growth) is reduced by 50%.

Molecule	effect on topotecan cytotoxicity on 293T_ABCG2_OX cells
B11	significantly increased the cytotoxic activity of topotecan
B5	significantly increased the cytotoxic activity of topotecan

Same assay, conditions: cell killing by topotecan on 293T_ABCG2_OX cells; viability relative to IgG control

Molecule	Killing
B1	+ (viability ≥30% and <50% of IgG control)
B2	+ (viability ≥30% and <50% of IgG control)
B3	+ (viability ≥30% and <50% of IgG control)
B4	++ (viability ≥10% and <30% of IgG control)
B6	− (≥75% of IgG control)
B7	− (≥75% of IgG control)
B8	− (≥75% of IgG control)
B9	− (≥75% of IgG control)
B10	− (≥75% of IgG control)

The molecules below were run against T1, ABCG2 (Homo sapiens, UniProt Q9UNQ0) (assay: Flow cytometry binding to 293T cells overexpressing human ABCG2 (293T_ABCG2_OX)). Conditions: 293T_ABCG2_OX cells.
T1 construct: expressed in transfected cells
T1 sequence (Q9UNQ0 1-655): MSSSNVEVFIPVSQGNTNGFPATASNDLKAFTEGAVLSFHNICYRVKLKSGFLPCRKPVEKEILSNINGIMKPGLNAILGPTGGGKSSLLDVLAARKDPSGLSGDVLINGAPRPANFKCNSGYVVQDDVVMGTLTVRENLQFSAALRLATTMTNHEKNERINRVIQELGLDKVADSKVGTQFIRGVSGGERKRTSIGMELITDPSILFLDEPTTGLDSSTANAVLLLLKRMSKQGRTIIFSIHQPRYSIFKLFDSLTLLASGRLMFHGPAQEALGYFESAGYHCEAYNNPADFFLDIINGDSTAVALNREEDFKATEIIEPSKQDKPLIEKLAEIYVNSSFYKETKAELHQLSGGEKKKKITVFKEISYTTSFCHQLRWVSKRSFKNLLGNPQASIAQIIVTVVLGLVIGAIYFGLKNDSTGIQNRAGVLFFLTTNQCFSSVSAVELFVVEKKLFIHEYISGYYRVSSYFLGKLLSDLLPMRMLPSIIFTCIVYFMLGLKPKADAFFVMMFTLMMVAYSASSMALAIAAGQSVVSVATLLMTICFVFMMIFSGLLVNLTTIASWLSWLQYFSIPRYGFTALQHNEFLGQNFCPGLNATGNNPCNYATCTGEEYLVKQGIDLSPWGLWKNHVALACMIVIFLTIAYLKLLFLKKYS
Design: key to Binding by FACS: binding=“+”; non-significant binding=“−”
Experimental: as §1

Molecule	Binding by FACS
B1	+
B2	+
B3	+
B4	+
B5	+
B6	+
B7	+
B8	+
B9	+
B10	+

Same assay, conditions: 293T_ABCG2_OX cells; read-out: Affinity for human ABCG2

Molecule	Kd [nM]
B1	41
B3	58

Same assay, conditions: in words; FIGS. 7-11, 21

Molecule	binding to 293T cells overexpressing human ABCG2
B11	strong binding

Same assay, conditions: in words; FIGS. 7-11, 21; listed as G.643

Molecule	binding to 293T cells overexpressing human ABCG2
B11	did not show significant binding

These molecules were tested against T1, ABCG2 (assay: not given). Conditions: not given.
Type: cell-based
Experimental: 293T_ABCG2_OX cells were washed several times and aliquoted into 96-well plates as 50 μl aliquots/well at a cell density of 2×10e6 cells per ml in phenol red-free DMEM. Cells were mixed with 50 μl antibodies or the small molecule inhibitors of ABCG2:-fumitremorgin C (FTC), or its tetracyclic analogue K0143, with a final concentration of 1 μM. Cells were then incubated in the presence of 2.5 μM Mitoxantrone 1 h at 37° C. The cells were subsequently washed twice and finally resuspended in […] PBS. Mitoxantrone fluorescence was measured using excitation at 635 nm and emission at 647 nm. Protocols was measuring efflux blockade are found in Szabo E, et al., PLoS One. 2018 Jan. 17; 13(1):e0190629; Deeken J F, et al., Mol Pharmacol. 2009 November; 76(5):946-56).

Molecule	Block Efflux	efflux inhibition activity
B1	+	strong efflux inhibition activity
B2	+	
B3	+	
B4	++	
B5	+	
B6	−	
B7	−	
B8	−	
B9	−	
B10	−	
